{"source": "paper PMC5874916", "about": "(2018)", "binders": {"B1": {"name": "purified recombinant eEF1A1 (OriGene), biotinylated (natural protein)", "chain": "MGKEKTHINIVVIGHVDSGKSTTTGHLIYKCGGIDKRTIEKFEKEAAEMGKGSFKYAWVLDKLKAERERGITIDISLWKFETSKYYVTIIDAPGHRDFIKNMITGTSQADCAVLIVAAGVGEFEAGISKNGQTREHALLAYTLGVKQLIVGVNKMDSTEPPYSQKRYEEIVKEVSTYIKKIGYNPDTVAFVPISGWNGDNMLEPSANMPWFKGWKVTRKDGNASGTTLLEALDCILPPTRPTDKPLRLPLQDVYKIGGIGTVPVGRVETGVLKPGMVVTFAPVNVTTEVKSVEMHHEALSEALPGDNVGFNVKNVSVKDVRRGNVAGDSKNDPPMEAAGFTAQVIILNHPGQISAGYAPVLDCHTAHIACKFAELKEKIDRRSGKKLEDGPKFLKSGDAAIVDMVPGKPMCVESFSDYPPLGRFAVRDMRQTVAVGVIKAVDKKAAGAGKVTKSAQKAQKAK", "modifications": "biotin (EZ-Link-sulfo-NHS-biotin)"}}, "key": {"[1]": {"target": "T1, 6xHis-tagged WT RTp51/p66 heterodimer purified from E. coli (HIV-1, UniProt P04585 588-1027)", "test": "BLI"}, "[2]": {"target": "T1, 6xHis-tagged WT RTp51/p66 heterodimer …", "test": "BLI", "remark": "listed apart in the source"}}}
{"binder": "B1", "values": [{"measurement": "Kd", "setting": "[1]", "value": 3.48, "unit": "nM"}, {"measurement": "koff", "setting": "[2]", "value": 0.000475, "unit": "s⁻¹"}]}
